# “And” between values parts separate entries of the source, which are not always exact repeats. Equal entries are not always repeated.
# B1: AKT2 HuHu: humanized anti-NTSR1 antibody, AKT2 HuVH (SEQ ID NO: 16) and AKT2 HuVL (SEQ ID NO: 17) (antibody, V domains shown)
# VH: QVQLVQSGAEVKKPGASVKVSCKASGYAFTSSWIHWVRQAPGQGLEWMGQIRPNSGNTYYNEKFKVRVTMTRDTSTSTVYMELSSLRSEDTAVYYCARYHYGFDYWGQGTLVTVSS
# VL: DIVMTQTPLSLSVTPGQPASISCRSSQSIVHSNGNTYLEWYLQKPGQSPQLLIYKVSNRFSGVPDRFSGSGSGTDFTLKISRVEAEDVGVYYCFQGAHLPWTFGQGTKVEIK
# B2: αNTSR1 (AKT2 Hu/Hu) 4seco-DUBA: antibody-drug conjugate of humanized antibody AKT2 HuHu with seco-DUBA payload (conjugate)
# heavy chain: B1 VH
# light chain: B1 VL
# B3: AKT2 HuHd: humanized anti-NTSR1 antibody, AKT2 HuVH (SEQ ID NO: 16) and AKT2 HdVL (SEQ ID NO: 15) (antibody, V domains shown)
# VH: B1 VH
# VL: DIQMTQSPSSLSASVGDRVTITCRSSQSIVHSNGNTYLEWYQQKPGKAPKLLIYKVSNRFSGVPSRFSGSGSGTDFTLTISSLQPEDFATYYCFQGAHLPWTFGQGTKVEIK
# B4: AKT2: affinity-matured mouse-human chimera anti-NTSR1 antibody, AKT2 VH (SEQ ID NO: 9) and AKT2 VL (SEQ ID NO: 10) (antibody, V domains shown)
# VH: QVQLQQPGSVLVRPGASVKLSCKASGYAFTSSWIHWAKQRPGQGLEWIGQIRPNSGNTYYNEKFKVKATLTVDTSSSTAYVDLSSLTSEDSAVYYCARYHYGFDYWGQGTLVTVSS
# VL: DVLMTQTPLSLPVSLGDQASISCRSSQSIVHSNGNTYLEWYLQKPGQSPKLLIYKVSNRFSGVPDRFSGSGSGTDFTLKISRVEAEDLGVYYCFQGAHLPWTFGGGTKLEIK
# B5: αNTSR1 (AKT2) 4seco-DUBA: antibody-drug conjugate of chimera antibody AKT2 with seco-DUBA payload (conjugate)
# heavy chain: B4 VH
# light chain: B4 VL
# Key:
# [1] = tested on: FaDu human head and neck cancer xenograft; experiment: Xenograft model of anti-NTSR1 ADCs (head and neck cancer); format: in vivo, male NOD SCID mice; conditions: for FaDu tumor growth: 5 mg/kg, Day 10 to Day 17
# Description: The aim of this study was to evaluate the in vivo anti-tumor efficacy of αNTSR1 (AKT2) 4seco-DUBA, αNTSR1 (AKT2 Hu/Hu) 4seco-DUBA, and αNTSR1 (AKT2 Hu/Hd) 4seco-DUBA in FaDu human head and neck cancer xenograft model in male NOD SCID mice.
# Formulations respectively comprising test article αNTSR1 (AKT2) 4seco-DUBA, test article αNTSR1 (AKT2 Hu/Hu) 4seco-DUBA, test article αNTSR1 (AKT2 Hu/Hd) 4seco-DUBA, and Hu IgG were formulated by diluting the stock with a 25 mM sodium citrate buffer (pH 6.5). […]
# The FaDu cells were maintained in vitro as a monolayer culture in RPMI-1640 medium supplemented with 10% fetal bovine serum at 37° C. in an atmosphere of 5% CO2 in air. The tumor cells were routinely sub-cultured twice weekly by trypsin-EDTA treatment. The cells growing in an exponential growth phase were harvested and counted for tumor inoculation.
# Male NOD SCID mice at age of 6-7 weeks were quarantined for one week. Five mice were housed in each cage. All animals were hosted in the animal facility with a 12-h light/12-h dark cycle at 19-25° C. Animals had free access to rodent pellet foods and water ad libitum.
# FaDu cells were subcutaneously (SC) implanted (4×10^6 cells in 1:1 PBS/matrigel mixture at 0.1 mL per mouse) into the right flank of male NOD SCID mice. When the average tumor volume had reached about 200 mm^3, the mice were randomly divided into 7 groups (N=6 per group). Each of Hu IgG, αNTSR1 (AKT2) 4seco-DUBA (5 mg/kg), αNTSR1 (AKT2 Hu/Hu) 4seco-DUBA (5 mg/kg), and αNTSR1 (AKT2 Hu/Hd) 4seco-DUBA (5 mg/kg) was intravenously administered twice weekly for 3 weeks.
# The tumor volumes, body weights, mortality, and signs of overt toxicity were monitored and recorded three times weekly for 28 days. Tumor volumes (mm^3) were measured three times per week using calipers and calculated according to the formula: Tumor Volume=(w^2×l)/2, where w=width and l=length in diameter (mm) of the tumor. The percentages of tumor growth inhibition (TGI) were calculated using the following formula: % TGI=[1−(T/C)]×100%, where T and C represent the mean tumor volumes of the treatment group and the control group, respectively. A TGI (%) value≥58% was considered as indicating significant anti-tumor activity. Animals were weighed three times weekly until the completion of the study.
# [2] = In vivo pharmacokinetic analysis (MSD ECL total antibody assay); conditions: BALB/c mice, 5 mg/kg via the tail vein; for MRT / Vss / t½: total antibody; for in vivo half live: 5 mg/kg
# Text: This Example used Meso Scale Discovery (MSD) Electrochemiluminescent (ECL) method to conduct the PK analysis of the anti-NTSR1 antibodies αNTSR1 (AKT2), αNTSR1 (AKT2 Hu/Hu) and αNTSR1 (AKT2 Hu/Hd) in BALB/c mice samples. The MSD assay can measure both conjugated and unconjugated antibodies. As illustrated in this example, for total antibody assay (including conjugated and unconjugated antibodies), the plate is coated with goat anti-human IgG, which can capture all humanized antibodies (conjugated and unconjugated).
# The mice were administered at a dose level of 5 mg/kg via the tail vein. Blood samples were then obtained at different time points for determining the concentrations of αNTSR1 (AKT2), αNTSR1 (AKT2 Hu/Hu) and αNTSR1 (AKT2 Hu/Hd) in mice by MESO QuickPlex SQ 120 method. The PK parameters of αNTSR1 (AKT2), αNTSR1 (AKT2 Hu/Hu) and αNTSR1 (AKT2 Hu/Hd) were analyzed by noncompartmental analysis using PHOENIX™ for WinNonlin Program, version 6.3.
# NTSR1 protein = NTSR1 protein (Homo sapiens, UniProt P30989); experiment: SPR (BIACORE T200) multi-cycle kinetic assay; conditions: 25° C., one-to-one Langmuir binding model
# Description: To know the binding kinetics differences among individual anti-NTSR1 antibodies, surface plasmon resonance (SPR) measurement with BIACORE™ T200 (CYTIVA® Inc.) was used as previously described (Karlsson & Falt, (1997) J. Immunol Methods 200:121-133). Carboxymethylated dextran biosensor chips (CM5, CYTIVA® Inc.) were activated with N-ethyl-N′-(3-dimethylaminopropyl)-carbodiimide hydrochloride (EDC) and N-hydroxysuccinimide (NHS) according to the supplier's instructions. NTSR1 protein was diluted with 10 mM sodium acetate, pH 4.0, into 5 μg/ml before injection at a flow rate of 10 μL/minute to achieve approximately 1500 response units (RU) of coupled protein followed by the injection of 1 M ethanolamine to block unreacted groups. For kinetics measurements, two-fold serial dilutions of anti-NTSR1 mAb (0.3125 nM to 40 nM) were injected in HBS-EP+BIACORET™ running buffer provided by the manufacturer (CYTIVA® Inc.) at 25° C. at a flow rate of 30 μL/min, and binding responses on the NTSR1 protein were corrected by subtraction of responses on a blank flow cell. Association rates (kon or Ka) and dissociation rates (koff or Kd) were calculated using a simple one-to-one Langmuir binding model with separate fittings of kon and koff. (CYTIVA® BIACORET™ Insight Evaluation Software).
# FaDu cells = experiment: In vitro cytotoxicity study (CELLTITER-GLO); format: cell-based, human; conditions: 72 hours treatment, cell viability, read-out: Relative IC50
# Description: Human head and neck cancer cell line FaDu was respectively grown in RPMI-1640 medium (ATCC® modification) supplemented with 10% fetal bovine serum. The FaDu cell lines were maintained in an atmosphere of 5% CO2 in a humidified 37° C. incubator. The day before treatment, cells were collected and seeded into 96-well plates (4,000 cells per well). Each treatment was performed in eight triplicate data points. After the treatment of 72 hours, cell viability was assessed by CELLTITER-GLO® kit (PROMEGA®) according to the manufacturer's instruction. At the end of the incubation, luminescence was measured using a SpectraMax i3x Multi Mode Detection Platform (MOLECULAR DEVICES®). Compound cytotoxicity was evaluated in comparison to cells treated with 0.05% PBS (ADCs) or 0.05% DMSO (toxic payload). IC50 values were calculated by fitting viability data with a four-parameter logistic equation using GRAPHPAD® prism 5.0 software.
# NTSR1 protein, sequence (P30989 whole entry): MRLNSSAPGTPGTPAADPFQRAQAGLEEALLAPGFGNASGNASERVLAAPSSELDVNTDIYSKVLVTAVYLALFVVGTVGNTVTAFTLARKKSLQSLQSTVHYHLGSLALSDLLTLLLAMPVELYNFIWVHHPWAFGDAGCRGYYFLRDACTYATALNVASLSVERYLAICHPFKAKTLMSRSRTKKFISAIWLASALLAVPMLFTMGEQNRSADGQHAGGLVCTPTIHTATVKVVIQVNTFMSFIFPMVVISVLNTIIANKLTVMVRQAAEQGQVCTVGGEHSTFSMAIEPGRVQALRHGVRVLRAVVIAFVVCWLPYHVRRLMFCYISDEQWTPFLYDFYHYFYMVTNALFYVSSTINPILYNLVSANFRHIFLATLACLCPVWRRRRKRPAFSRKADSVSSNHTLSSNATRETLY
Molecule,"TGI % (1-T/C) Day 0 ([1]; 5 mpk, IV, BIW × 3) [%]","TGI % (1-T/C) Day 3 ([1]; 5 mpk, IV, BIW × 3, Day 3) [%]","TGI % (1-T/C) Day 5 ([1]; 5 mpk, IV, BIW × 3) [%]","TGI % (1-T/C) Day 7 ([1]; 5 mpk, IV, BIW × 3) [%]","TGI % (1-T/C) Day 10 ([1]; 5 mpk, IV, BIW × 3) [%]","TGI % (1-T/C) Day 12 ([1]; 5 mpk, IV, BIW × 3) [%]","TGI % (1-T/C) Day 14 ([1]; 5 mpk, IV, BIW × 3) [%]","TGI % (1-T/C) Day 17 ([1]; 5 mpk, IV, BIW × 3) [%]",MRT [2] [h],Vss [2] [L/kg],t½ [2],in vivo half live ([2]; listed as αNTSR1 (AKT2 Hu/Hu)) [h],"Ka (kon, association rate) (NTSR1 protein) [M⁻¹ s⁻¹]","Kd (koff, dissociation rate) (NTSR1 protein) [s⁻¹]",FaDu tumor growth [1],IC50 (FaDu cells) [nM],in vivo half live ([2]; listed as αNTSR1 (AKT2 Hu/Hd)) [h],in vivo half live ([2]; listed as αNTSR1 (AKT2))
B1,0.0,17.7,33.4,37.3,13.4,6.7,25.6,26.9,252 ± 116,0.120 ± 0.026,182 ± 90.8 h,182 ± 90.8,787700,0.0008084,–,–,–,–
B2,0.0,–,17.5,47.2,65.4,72.2,83.8,90.8,–,–,–,–,–,–,significantly reduced FaDu tumor growth,12.5,–,–
B3,0.0,–,13.1,28.4,36.2,40.9,37.8,32.5,209 ± 62.5,0.135 ± 0.020,156 ± 48.6 h,–,461400,0.0006575,–,–,156 ± 48.6,–
B4,0.0,–,11.1,34.8,31.0,31.1,29.9,21.6,89.6 ± 6.6,0.159 ± 0.010,71.7 ± 5.1^ h,–,406800,0.0006558,–,–,–,71.7 ± 5.1 h and 71 h
B5,0.0,–,28.5,54.4,68.5,83.8,90.5,95.3,–,–,–,–,–,–,significantly reduced FaDu tumor growth,36.9,–,–

# Reference: patent US12091454B2, “Humanized anti-human neurotensin receptor 1 antibodies and their uses” (DEVELOPMENT CENTER FOR BIOTECHNOLOGY, priority 2022, dated 2024)
